Residue numbers refer to the chain shown, from its start.
T1: murine IL-17A (murine, UniProt Q62386 26-158, limits assumed)
T1 construct: Antigen of the murine IL-17A crossreactivity ELISA; construct not described; also called mouse IL-17A
T1 sequence (looked up): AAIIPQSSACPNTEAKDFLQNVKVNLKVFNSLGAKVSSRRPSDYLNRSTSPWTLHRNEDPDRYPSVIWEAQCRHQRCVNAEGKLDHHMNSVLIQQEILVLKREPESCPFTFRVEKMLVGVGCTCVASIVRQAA

B1: 8A5G4 (antibody, V domains shown)
VH: QVELKESGPGLVAPSQSLSITCTVSGFSLTSYGVYWVRQPPGKGLEWLVVIWSDGTTTYNSALKSRLSISKDNSKSQVFLKMNSLQTDDTAMYYCARQGDNYSYAVDYWGQGTAVTVSS
VL: DVVMIQIPLSLPVSLGDQASISCRSSQSLVHSNGNTYLHWYLQKPGQSPKLLIYKVFNRFSGVPDRFSGSGSGTDFTLKISRVEAEDLGVYFCSQSTHAPLTFGAGTKLELK
notes: amino acids 1-19 are stated as the leader; also called A2
B2: 4H11C7 (antibody, mouse IgG1, V domains shown)
VH: QVTLKESGPGILQPSQTLSLTCSFSGFSLNTFGMGVDWIRQPSGKGLEWLAHIWWDDDKYYNPALESRLTISKDASKNQVFLKIANVDTADTATYYCSRRELGPYFFDYWGQGTTLTVSS
VL: GVLMTQTPLSLPVSLGDQASISCRSSQSIVHSNGNTYLEWYLQKPGQSPKLLIYKVSNRFSGVPDRFSGSGSGTDFTLKINRVEAEDLGVYYCFQGSHFPYTFGGGTKLEID
notes: amino acids 1-19 are stated as the leader; also called A1
B3: 23A4D8 (antibody, mouse IgG2a, V domains shown)
VH: EVQLQQSGPELVKPGASVKISCKASGFTFTDYYMNWMKQSHGKSLEWIGDINPKNGGTIFNQNFRGKATLTVDKSSSTAYMELRSLTSEDSAVYYCARSILTGPFYFDYWGQGTTLTVSS
VL: DIVLTQSPASLAVSLGQRAIISCKASQSVSFAGTGLMHWYQQKSGQQPKLLISRASNLEAGVPTRFSGSGSRTDFTLNIHPVEEDDAATYYCQQTMEYPTFGGGTKLEIK
notes: also called Murine 23A4D8; parental
B4: 22E2G4 (antibody, mouse IgG1, V domains shown)
VH: QVQLQQPGAELVMPGTSVRLSCKASGYTFTSYWMHWVKQRPGQGLEWIGEIDPSDTYTNYNPKFKGKATLTVDKSSSTAYMQFTSLTSEDSAVYYCARSGIYYDYYEDYWGQGTTLTVSS
VL: DVVMTQTPLSLPVSLGDQASISCRSSQILLHSNGNTYLHWYLQKPGQSPKLLIYKVSNRFSGVPDRFSGSGSGTDFTLKISRVEAEDLGVYFCSQSVHVPTFGGGTKLEIK
notes: amino acids 1-19 are stated as the leader; also called A3
B5: 24F11E4 (antibody, mouse IgG1, V domains shown)
VH: B4 VH with T16A, S31N, M34I, Y57F, N61S, F83L, S85G, Y95F
VL: B4 VL with A19V, E86D
notes: amino acids 1-19 are stated as the leader; also called A5
B6: 26G11B11 (antibody, mouse IgG1, V domains shown)
VH: B4 VH with T16A, R19K, S25A, T56S, P62Q, F83L, T84S
VL: B4 VL with I28S, L30V, V97I
notes: amino acids 1-19 are stated as the leader; also called A6
B7: REMD 155.1 (antibody, human IgG4 S228P, kappa, V domains shown)
VH: QVQLVQSGAEVKKPGASVKVSCKASGFTFTDYYMNWVRQAPGQGLEWMGDINPKNGGTIFNQNFRGRVTMTRDTSISTAYMELSRLRSDDTAVYYCARSILTGPFYFDYWGQGTLVTVSS
VL: DIVMTQSPDSLAVSLGERATINCKASQSVSFAGTGLMHWYQQKPGQQPKLLIYRASNLEAGVPDRFSGSGSGTDFTLTISSLQAEDVAVYYCQQTMEYPTFGGGTKLEIKR
notes: Humanized antibody derived from 23A4D8; also called IgG 2 (H1/L2); H1 + L2
B8: REMD 155.2 (antibody, human IgG4 S228P, kappa, V domains shown)
VH: B7 VH
VL: B7 VL with M4L, L82V
notes: Humanized antibody derived from 23A4D8; also called IgG 4 (H1/L4); H1 + L4
B9: REMD 155 (antibody, human IgG4 S228P, kappa, V domains shown)
VH: B7 VH
VL: B7 VL with Q47P
notes: Humanized antibody derived from 23A4D8; also called IgG 1 (H1/L1); H1 + L1
B10: chimeric IgG4 (murine-human chimeric antibody derived from murine antibody A4 and human IgG4) (antibody, V domains shown)
VH: B3 VH
VL: DIVLTQSPASLAVSLGQRAIISCKASQSVSFAGTGLMHWYQQKSGQQPKLLISRASNLEAGVPTRFSGSGSRTDFTLNIHPVEEDDAATYYCQQTMEYPTFGGGTKLEIKR
notes: also called Chimeric Ab

What follows are binders tested against T2, human IL-17A (human, UniProt Q16552 24-155) (assay: cell-based or functional assay).
T2 sequence (Q16552 24-155 limits assumed): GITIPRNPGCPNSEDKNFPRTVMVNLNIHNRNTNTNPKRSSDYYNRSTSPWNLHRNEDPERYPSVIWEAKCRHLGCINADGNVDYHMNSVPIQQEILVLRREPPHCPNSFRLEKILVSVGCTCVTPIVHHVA

Row | Binder | IC50 (nM), IL6 production by TNFα-primed NIH3T3 cells stimulated with human IL-17A
1 | B1 | 0.47 nM
2 | B2 | 0.953 nM
3 | B3 | 0.581 nM
4 | B4 | 0.534 nM
5 | B5 | 0.138 nM
6 | B6 | 0.544 nM

Target: T2, human IL-17A
Assay: cell-based or functional assay
Remark: another data set of the same source

Row | Binder | IC50 (nM), NIH3T3 in vitro functional assay described in Example 1 (IL-6 production)
7 | B7 | 0.995 nM
8 | B8 | 0.975 nM
9 | B9 | 0.88 nM
10 | B3 | 0.703 nM

Each binder was assayed against T2, human IL-17A (assay: IL-17A/IL-17R blocking ELISA).

Row | Binder | IC50
11 | B1 | 1.65 nM
12 | B2 | 2.44 nM
13 | B3 | 2.07 nM
14 | B4 | 3.04 nM
15 | B5 | 2.15 nM
16 | B6 | 2.19 nM

The binders below were run against T3, cyno primate IL-17A (cyno primate, UniProt A0A2K5TTB0 24-155) (assay: ELISA, binding to cyno IL-17A).
T3 construct: Antigen of the primate crossreactivity ELISA; construct not described; also called Cy IL-17
T3 sequence (A0A2K5TTB0 entry or part of it): as the sequence (Q16552 24-155 limits assumed) above, with T3A, P8S, N34S, I77V, N78K, P104R counted along it

Row | Binder | EC50
17 | B1 | 0.008 nM
18 | B2 | 0.016 nM
19 | B3 | 0.004 nM
20 | B4 | 0.013 nM
21 | B5 | 0.01 nM
22 | B6 | 0.012 nM

These binders were tested against T2, human IL-17A (assay: ELISA, binding to human IL-17A).

Row | Binder | EC50
23 | B1 | 0.1 nM
24 | B2 | 0.19 nM
25 | B3 | 0.08 nM
26 | B4 | 0.15 nM
27 | B5 | 0.16 nM
28 | B6 | 0.12 nM

Each binder was assayed against T1, murine IL-17A (assay: murine IL-17A crossreactivity ELISA).

Row | Binder | binding result
29 | B1 | no binding
30 | B2 | no binding
31 | B3 | no binding
32 | B4 | no binding
33 | B5 | no binding
34 | B6 | no binding

Each binder was assayed against T2, human IL-17A (assay: SPR, Biacore 8k; antibody amine-coupled to the chip, IL-17A as analyte).
Experimental: (§1) The recombinant IgGs secreted to the medium and were purified using protein A affinity chromatography. […] Antibodies were immobilized on the sensor chip through amine coupling method. […] The data of dissociation (kd) and association (ka) rate constants were obtained using Biacore 8k evaluation software. The equilibrium dissociation constants (KD) were calculated from the ratio of kd over ka.

Row | Binder | Kd | koff | kon
35 | B7 | ≤ 0.00361 nM | ≤ 1e-05 s⁻¹ | 2.77e+06 M⁻¹ s⁻¹
36 | B8 | ≤ 0.00346 nM | ≤ 1e-05 s⁻¹ | 2.89e+06 M⁻¹ s⁻¹
37 | B9 | 0.00552 nM | 1.35e-05 s⁻¹ | 2.45e+06 M⁻¹ s⁻¹
38 | B3 | 0.00489 nM | 1.22e-05 s⁻¹ | 2.5e+06 M⁻¹ s⁻¹
39 | B10 | 0.00515 nM | – | 1.94e+06 M⁻¹ s⁻¹

These binders were tested against T2, human IL-17A (assay: SPR, Biacore T200; antibody amine-coupled to the chip, IL-17A as analyte).
Experimental: The data of dissociation (kd) and association (kₐ) rate constants were obtained using Biacore T200 evaluation software. The equilibrium dissociation constants (KD) were calculated from the ratio of kd over kₐ.

Row | Binder | Kd | koff | kon
40 | B10 | ≤ 0.00493 nM | ≤ 1e-05 s⁻¹ | 2.03e+06 M⁻¹ s⁻¹

Each binder was assayed against T2, human IL-17A (assay: SPR, Biacore 8k; antibody amine-coupled to the chip, IL-17A as analyte (second, unlabelled row)).
Experimental: as §1

Row | Binder | Kd | koff
41 | B10 | 0.00439 nM | 1e-05 s⁻¹

Each binder was assayed against T2, human IL-17A (assay: SPR, Biacore 8k; antibody amine-coupled to the chip, IL-17A as analyte; first of two Chimeric Ab rows (ka 1.94E+06)).
Experimental: as §1

Row | Binder | koff
42 | B10 | ≤ 1e-05 s⁻¹

What follows are binders tested against T2, human IL-17A (assay: SPR, Biacore 8k; antibody amine-coupled to the chip, IL-17A as analyte (second, unlabelled row); second, unlabelled row under Chimeric Ab).
Experimental: as §1

Row | Binder | kon
43 | B10 | 2.28e+06 M⁻¹ s⁻¹

Source: patent US20210079087A1 (REMD BIOTHERAPEUTICS, published 2021)
